Consider 1 molecule from patent US20190365920A1 (INSERM INSTITUT NATIONAL DE LA SANT ET DE LA RECHERCHE …, published 2019).

For the assay, the target named is T1, SLITRK6 (SLIT and NTRK-like family, member 6) (human, UniProt Q9H5Y7 27-841).
T1 construct: whole, on cells; Endogenous SLITRK6 at the membrane of A375 BRAF-mutant melanoma cells after treatment with PLX4032, alone or with AZD6244; also called DFNMYP
T1 sequence (looked up): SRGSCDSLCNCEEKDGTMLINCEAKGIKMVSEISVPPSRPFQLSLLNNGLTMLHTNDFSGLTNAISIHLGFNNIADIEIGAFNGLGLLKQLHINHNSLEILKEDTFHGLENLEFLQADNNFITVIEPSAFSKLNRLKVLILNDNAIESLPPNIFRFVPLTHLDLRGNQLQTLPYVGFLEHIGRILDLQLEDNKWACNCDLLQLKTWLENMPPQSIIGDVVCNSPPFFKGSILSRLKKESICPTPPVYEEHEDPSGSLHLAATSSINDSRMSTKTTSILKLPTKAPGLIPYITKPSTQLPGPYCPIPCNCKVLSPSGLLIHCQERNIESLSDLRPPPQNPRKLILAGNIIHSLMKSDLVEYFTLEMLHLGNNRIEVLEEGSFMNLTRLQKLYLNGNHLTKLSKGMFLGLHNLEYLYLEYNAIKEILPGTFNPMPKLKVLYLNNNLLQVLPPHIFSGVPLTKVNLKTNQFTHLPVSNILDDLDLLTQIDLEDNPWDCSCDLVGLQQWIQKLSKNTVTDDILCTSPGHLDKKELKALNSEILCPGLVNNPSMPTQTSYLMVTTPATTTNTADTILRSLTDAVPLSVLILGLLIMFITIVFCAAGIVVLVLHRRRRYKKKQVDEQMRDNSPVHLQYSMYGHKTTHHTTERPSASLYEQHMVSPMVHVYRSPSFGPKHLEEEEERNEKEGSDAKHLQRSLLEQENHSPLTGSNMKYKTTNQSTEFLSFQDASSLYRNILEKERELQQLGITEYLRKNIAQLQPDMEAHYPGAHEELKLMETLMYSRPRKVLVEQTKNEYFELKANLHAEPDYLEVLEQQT
The experiment in a line: immunofluorescence staining of A375 cells (si-Ctl or si-SLITRK6) treated with PLX4032 alone or with AZD6244.

B1: Hal5-10acl2 antibody directed against SLITRK6 (antibody, V domains shown)
VH: QVQLVESGGGVVQPGRSLRLSCAASGFTFSSYGMHWVRQAPGKGLEWVAVIWYDGSNQYYADSVKGRFTISRDNSKNTLFLQMHSLRAEDTAVYYCARGLTSGRYGMDVWGQGTTVTVSS
VL: DIVMTQSPLSLPVTPGEPASISCRSSQSLLLSHGFNYLDWYLQKPGQSPQLLIYLGSSRASGVPDRFSGSGSGTDFTLKISRVEAEDVGLYYCMQPLQIPWTFGQGTKVEIKR
notes: It is produced by a CHO cell deposited as ATCC PTA-13102; also called HA15-10acl2; the antibody against SLITRK6
As to B1, the binding result is recorded as “binds”.
